In patent US10613105 (FRAUNHOFER GESELLSCHAFT ZUR FORDERUNG DER ANGEWANDTEN …, dated 2020):

Target: TLR4 receptor complex expressed in the NIH 3T3 pNifty SEAP TLR4/CD14 reporter cell line
Test: cell-based or functional assay

Chain of TLR4 receptor complex expressed in the NIH 3T3 pNifty SEAP TLR4/CD14 reporter cell line (O00206 24-839, chain 1 of 2): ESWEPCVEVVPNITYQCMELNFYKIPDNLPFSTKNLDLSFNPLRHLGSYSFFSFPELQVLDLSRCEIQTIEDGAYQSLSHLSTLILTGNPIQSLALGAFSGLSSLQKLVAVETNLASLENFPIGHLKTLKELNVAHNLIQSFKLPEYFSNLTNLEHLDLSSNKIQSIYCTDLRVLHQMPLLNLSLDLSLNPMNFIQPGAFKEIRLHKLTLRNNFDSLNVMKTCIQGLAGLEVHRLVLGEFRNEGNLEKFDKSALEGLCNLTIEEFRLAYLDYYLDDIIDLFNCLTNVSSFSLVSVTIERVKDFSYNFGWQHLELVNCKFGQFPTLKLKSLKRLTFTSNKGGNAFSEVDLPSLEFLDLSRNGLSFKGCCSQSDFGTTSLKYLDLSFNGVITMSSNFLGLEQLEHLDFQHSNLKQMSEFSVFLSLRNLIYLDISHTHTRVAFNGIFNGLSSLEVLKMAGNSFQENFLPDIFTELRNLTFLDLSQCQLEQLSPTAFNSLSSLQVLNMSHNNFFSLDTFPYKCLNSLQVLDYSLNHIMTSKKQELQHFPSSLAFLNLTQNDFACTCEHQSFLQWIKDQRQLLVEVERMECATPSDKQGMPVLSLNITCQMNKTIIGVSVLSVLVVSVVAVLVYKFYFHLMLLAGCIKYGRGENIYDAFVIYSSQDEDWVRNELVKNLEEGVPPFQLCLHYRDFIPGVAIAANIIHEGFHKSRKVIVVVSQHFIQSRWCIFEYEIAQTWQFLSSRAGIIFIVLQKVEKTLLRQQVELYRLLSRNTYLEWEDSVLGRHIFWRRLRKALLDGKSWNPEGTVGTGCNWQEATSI
Chain of TLR4 receptor complex expressed in the NIH 3T3 pNifty SEAP TLR4/CD14 reporter cell line (P08571 20-345, chain 2 of 2, further chain): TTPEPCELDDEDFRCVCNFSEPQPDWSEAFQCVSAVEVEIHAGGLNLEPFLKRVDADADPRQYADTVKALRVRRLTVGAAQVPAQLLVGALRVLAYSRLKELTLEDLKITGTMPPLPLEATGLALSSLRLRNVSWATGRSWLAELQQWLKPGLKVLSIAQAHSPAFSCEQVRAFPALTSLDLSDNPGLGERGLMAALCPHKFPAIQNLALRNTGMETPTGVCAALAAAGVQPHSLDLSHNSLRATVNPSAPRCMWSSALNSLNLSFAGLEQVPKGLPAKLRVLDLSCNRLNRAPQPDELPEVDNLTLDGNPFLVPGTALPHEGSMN

Binder: KRKEVICRGSDDDYSFCRAL [KRKEVICRGSDDDYSFCRAL peptide (SEQ ID NO: 4)]
- IC50 in the PAMP assay (SEAP reporter, NIH 3T3 pNifty SEAP TLR4/CD14 cells): > 200 mM

Binder: KMQYPISINVNPCIELKGSK [KMQYPISINVNPCIELKGSK peptide (SEQ ID NO: 2)]
- IC50 in the PAMP assay (SEAP reporter, NIH 3T3 pNifty SEAP TLR4/CD14 cells): > 200 mM

Binder: GLLHIFYIPRRDLKQLYFNL [GLLHIFYIPRRDLKQLYFNL peptide (SEQ ID NO: 3)]
- IC50 in the PAMP assay (SEAP reporter, NIH 3T3 pNifty SEAP TLR4/CD14 cells): > 200 mM

Binder: KGETVNTTISFSFKGIKFSK [KGETVNTTISFSFKGIKFSK peptide (SEQ ID NO: 1)]
- IC50 in the PAMP assay (SEAP reporter, NIH 3T3 pNifty SEAP TLR4/CD14 cells): > 200 mM
